Measured values taken from ChEMBL document CHEMBL2074082, “Characterization of the monocarboxylate transporter 1 expressed in Xenopus laevis oocytes by changes in cytosolic pH” (Biochem J, 1998).

Experiments:
Format in all cases: functional, cell-based
Conditions in all cases: Oocyte
[1] = substrate: CC(=O)C(=O)O; assay: (§1) TP_TRANSPORTER: change in intracellular pH(pHi)value in Xenopus laevis oocytes
[2] = substrate: CC(C)C(=O)C(=O)O; assay: as §1
[3] = substrate: CC(C)CC(=O)C(=O)O; assay: as §1
[4] = substrate: C[C@@H](O)C(=O)O; assay: as §1

B1: Monocarboxylate transporter 1 (Rattus norvegicus), P53987 (protein)
chain: MPPAIGGPVGYTPPDGGWGWAVVVGAFISIGFSYAFPKSITVFFKEIEIIFSATTSEVSWISSIMLAVMYAGGPISSILVNKYGSRPVMIAGGCLSGCGLIAASFCNTVQELYFCIGVIGGLGLAFNLNPALTMIGKYFYKKRPLANGLAMAGSPVFLSTLAPLNQAFFGIFGWRGSFLILGGLLLNCCVAGSLMRPIGPQQGKVEKLKSKESLQEAGKSDANTDLIGGSPKGEKLSVFQTVNKFLDLSLFTHRGFLLYLSGNVVMFFGLFTPLVFLSNYGKSKHFSSEKSAFLLSILAFVDMVARPSMGLAANTRWIRPRVQYFFAASVVANGVCHLLAPLSTTYVGFCIYAGVFGFAFGWLSSVLFETLMDLVGPQRFSSAVGLVTIVECCPVLLGPPLLGRLNDMYGDYKYTYWACGVILIIAGLYLFIGMGINYRLVAKEQKAEEKKRDGKEDETSTDVDEKPKKTMKETQSPAPLQNSSGDPAEEESPV
**Q.** With B1 as the protein, how does the Km [1] read?
**A.** 1010 µM

**Q.** What about the Km [2] of the same protein?
**A.** 1250 µM

**Q.** What about the Km [3] of the same protein?
**A.** 670 µM

**Q.** And the Km [4]?
**A.** 3500 µM
